Assay results taken from publication PMC5519609.

Biological target: C3b (human) (UniProt P01024)
Experiment: SPR; Biacore T200; about 2488 RU of C3b immobilised by amine coupling on a CM5 chip; CFHR3 injected in duplicate at 10-300 ug/ml; 25 °C, 30 ul/min; 10 mM Hepes-buffered saline, 3 mM ENTA (so in the source), 0.05% surfactant p20; wild type: KD from rate constants, mutant: steady-state affinity fit

Row | Kd | koff | kon | Substance
1 | 0.15 µM | 0.00128 s⁻¹ | 8350 M⁻¹ s⁻¹ | wild-type recombinant CFHR3 (complement factor H-related protein 3) (from UniProt Q02985 19-330) (natural protein)
2 | 18 µM |  |  | mutant recombinant CFHR3 Arg142Cys (rs61737525, c.424 C > T) (from UniProt Q02985 19-330) (natural protein)
